Laboratory results from patent publication US20170152299A1 (GUANGZHOU SHENGLU BIOTECH, published 2017).

T1: FGF7 (UniProt P21781 32-194)
T1 construct: Bought reagent; also called KGF
T1 sequence (looked up): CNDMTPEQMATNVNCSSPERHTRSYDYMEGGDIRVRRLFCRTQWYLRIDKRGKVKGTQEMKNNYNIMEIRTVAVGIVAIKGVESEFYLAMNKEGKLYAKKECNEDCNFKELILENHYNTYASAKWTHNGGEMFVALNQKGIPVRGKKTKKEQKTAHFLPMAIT


Biological target: T1, FGF7
Experiment: isothermal titration calorimetry; FGF7 titrated into the truncated FGFR2b extracellular fragment in the sample cell (Example 8)
Protocol: The three types of the FGFR2b extracellular fragments and FGF7 (purchased from Millipore) were dialysed respectively with iTC buffer (0.15 mol/L NaCl and 5% glycerol in 20 mmol/L Na₂HPO₄-citrate buffer, pH 7.2). The proteins after the dialysis was centrifuged at 4° C. and 18000 rpm for 30 min before the iTC experiment.
400 ul 35 μmol/L of each of the three types of the FGFR2b extracellular fragments was added to the sample pool, respectively, and titrated with 200 μl 93 μmol/LFGF7 at 2 μl per time at a 2.5 min interval for a total of 20 drops.

Ka [M⁻¹] | Binder
8.74e+06 | truncated protein of the wild-type FGFR2b extracellular fragment (SEQ ID NO: 8) (receptor, also called truncated FGFR2b extracellular fragment, wild type) KRAPYWTNTEKMEKRLHAVPAANTVKFRCPAGGNPMPTMRWLKNGKEFKQEHRIGGYKVRNQHWSLIMESVVPSDKGNYTCVVENEYGSINHTYHLDVVERSPHRPILQAGLPANASTVVGGDVEFVCKVYSDAQPHIQWIKHVEKNGSKYGPDGLPYLKVLKHSGINSSNAEVLALFNVTEADAGEYICKVSNYIGQANQSAWLTVLPKQQAPGR
3.94e+07 | truncated protein of P253R mutant-type FGFR2b extracellular fragment (SEQ ID NO: 12) (receptor, also called truncated FGFR2b extracellular fragment, P253R mutant type) KRAPYWTNTEKMEKRLHAVPAANTVKFRCPAGGNPMPTMRWLKNGKEFKQEHRIGGYKVRNQHWSLIMESVVPSDKGNYTCVVENEYGSINHTYHLDVVERSRHRPILQAGLPANASTVVGGDVEFVCKVYSDAQPHIQWIKHVEKNGSKYGPDGLPYLKVLKHSGINSSNAEVLALFNVTEADAGEYICKVSNYIGQANQSAWLTVLPKQQAPGR
1.26e+08 | truncated protein of S252W mutant-type FGFR2b extracellular fragment (SEQ ID NO: 10) (receptor, also called truncated FGFR2b extracellular fragment, S252W mutant type) KRAPYWTNTEKMEKRLHAVPAANTVKFRCPAGGNPMPTMRWLKNGKEFKQEHRIGGYKVRNQHWSLIMESVVPSDKGNYTCVVENEYGSINHTYHLDVVERWPHRPILQAGLPANASTVVGGDVEFVCKVYSDAQPHIQWIKHVEKNGSKYGPDGLPYLKVLKHSGINSSNAEVLALFNVTEADAGEYICKVSNYIGQANQSAWLTVLPKQQAPGR
